Data as given in US20150233949.

Columns and labels:
[1] = biological target: mouse cytochrome c with a C-terminal Flag tag
Chain of mouse cytochrome c with a C-terminal Flag tag (chain, as listed by the source): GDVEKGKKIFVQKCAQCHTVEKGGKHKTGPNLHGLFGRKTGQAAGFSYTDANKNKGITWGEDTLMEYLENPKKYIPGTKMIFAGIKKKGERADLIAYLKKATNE

B1: human SIRT3-HA (protein)
chain: MAFWGWRAAAALRLWGRVVERVEAGGGVGPFQACGCRLVLGGRDDVSAGLRGSHGARGEPLDPARPLQRPPRPEVPRAFRRQPRAAAPSFFFSSIKGGRRSISFSVGASSVVGSGGSSDKGKLSLQDVAELIRARACQRVVVMVGAGISTPSGIPDFRSPGSGLYSNLQQYDLPYPEAIFELPFFFHNPKPFFTLAKELYPGNYKPNVTHYFLRLLHDKGLLLRLYTQNIDGLERVSGIPASKLVEAHGTFASATCTVCQRPFPGEDIRADVMADRVPRCPVCTGVVKPDIVFFGEPLPQRFLLHVVDFPMADLLLILGTSLEVEPFASLTEAVRSSVPRLLINRDLVGPLAWHPRSRDVAQLGDVVHGVESLVELLGWTEEMRDLVQRETGKLDGPDK
acetylation of residues K40 and K74 of cytochrome c (mass spectrometry) [1]: when hSIRT3 was cotransfected with cytochrome c, acetylation of residues K40 and K74 of cytochrome c was no longer detected

B2: SIRT3 (protein)
chain: MAFWGWRAAAALRLWGRVVERVEAGGGVGPFQACGCRLVLGGRDDVSAGLRGSHGARGEPLDPARPLQRPPRPEVPRAFRRQPRAAAPSFFFSSIKGGRRSISFSVGASSVVGSGGSSDKGKLSLQDVAELIRARACQRVVVMVGAGISTPSGIPDFRSPGSGLYSNLQQYDLPYPEAIFELPFFFHNPKPFFTLAKELYPGNYKPNVTHYFLRLLHDKGLLLRLYTQNIDGLERVSGIPASKLVEAHGTFASATCTVCQRPFPGEDIRADVMADRVPRCPVCTGVVKPDIVFFGEPLPQRFLLHVVDFPMADLLLILGTSLEVEPFASLTEAVRSSVPRLLINRDLVGPLAWHPRSRDVAQLGDVVHGVESLVELLGWTEEMRDLVQRETGKLDGPDK
deacetylation assay (Western blot) (endogenous cytochrome c): SIRT3 can deacetylate endogenous cytochrome c
